No end group written: not given here. *: point of attachment. Biotin = O=C1N[C@H]2[C@H](CS[C@H]2CCCCC(=O)*)N1
What was measured:
asyn_113-127 [1] = molecular target: T1, asyn_113-127 (human); test: Ala-scan peptide ELISA, row C, run 1; note: test concentration or dose not given here
T1 construct: also called pep1
T1 peptide: Biotin-LEDMPVDPDNEAYEM

asyn_113-127_113A [2] = molecular target: T2, asyn_113-127_113A (human); test: Ala-scan peptide ELISA, row C, run 1; note: test concentration or dose not given here
T2 construct: substitution is already in the entry; also called pep2
T2 peptide: Biotin-AEDMPVDPDNEAYEM

asyn_113-127_114A [3] = molecular target: T3, asyn_113-127_114A (human); test: Ala-scan peptide ELISA, row C, run 1; note: test concentration or dose not given here
T3 construct: substitution is already in the entry; also called pep3
T3 peptide: Biotin-LADMPVDPDNEAYEM

asyn_113-127_115A [4] = molecular target: T4, asyn_113-127_115A (human); test: Ala-scan peptide ELISA, row C, run 1; note: test concentration or dose not given here
T4 construct: substitution is already in the entry; also called pep4
T4 peptide: Biotin-LEAMPVDPDNEAYEM

asyn_113-127_116A [5] = molecular target: T5, asyn_113-127_116A (human); test: Ala-scan peptide ELISA, row C, run 1; note: test concentration or dose not given here
T5 construct: substitution is already in the entry; also called pep5
T5 peptide: Biotin-LEDAPVDPDNEAYEM

asyn_113-127_117A [6] = molecular target: T6, asyn_113-127_117A (human); test: Ala-scan peptide ELISA, row C, run 1; note: test concentration or dose not given here
T6 construct: substitution is already in the entry; also called pep6
T6 peptide: Biotin-LEDMAVDPDNEAYEM

asyn_113-127_118A [7] = molecular target: T7, asyn_113-127_118A (human); test: Ala-scan peptide ELISA, row C, run 1
T7 construct: substitution is already in the entry; also called pep7
T7 peptide: Biotin-LEDMPADPDNEAYEM
Description: (§1) 96-well Nunc plates were coated with 50 μL per well of 1 μg/mL streptavidin (from Jackson Immuno Research Laboratory) in PBS at 4° C. overnight. The plates were washed three times with PBST, and blocked with PBS containing 3% BSA at room temperature for 1 hour. The N-terminal biotinylated peptides were dissolved in Milli Q water to a concentration of 2 mg/mL, then further diluted to a concentration of 2 μg/mL with PBS. 50 μl of the diluted peptide was applied to the streptavidin-coated plates and incubated at 4° C. overnight. 2 μg/mL of biotinylated human alpha-synuclein was used as the positive control. The plates were washed three times with PBST before use. Purified antibody was diluted by serial dilution methods, from 20 μg/mL to 1 ng/mL, and 50 μL of the antibody solution was added to the peptide-coated wells. The plates were incubated for 1 hour at room temperature, then washed three times with PBST. Secondary detection antibody (goat anti-rat HRP (obtained from Southern Biotech)) was added with 1:5,000 dilutions and incubated for 1 hour at room temperature, then washed three times with PBST. Plates were developed with 50 μL/well of TMB substrate (Thermo Fisher) and quenched with 50 μL/well of 1 N sulfuric acid. The signal was quantified on a BioTek® plate reader at A450. A parallel repeat was performed for each peptide in a separate plate.

asyn_113-127_119A [8] = molecular target: T8, asyn_113-127_119A (human); test: Ala-scan peptide ELISA, row C, run 1
T8 construct: substitution is already in the entry; also called pep8
T8 peptide: Biotin-LEDMPVAPDNEAYEM
Description: as §1

asyn_113-127_120A [9] = molecular target: T9, asyn_113-127_120A (human); test: Ala-scan peptide ELISA, row C, run 1
T9 construct: substitution is already in the entry; also called pep9
T9 peptide: Biotin-LEDMPVDADNEAYEM
Description: as §1

asyn_113-127_121A [10] = molecular target: T10, asyn_113-127_121A (human); test: Ala-scan peptide ELISA, row C, run 1
T10 construct: substitution is already in the entry; also called pep10
T10 peptide: Biotin-LEDMPVDPANEAYEM
Description: as §1

asyn_113-127_122A [11] = molecular target: T11, asyn_113-127_122A (human); test: Ala-scan peptide ELISA, row C, run 1
T11 construct: substitution is already in the entry; also called pep11
T11 peptide: Biotin-LEDMPVDPDAEAYEM
Description: as §1

asyn_113-127_123A [12] = molecular target: T12, asyn_113-127_123A (human); test: Ala-scan peptide ELISA, row C, run 1
T12 construct: substitution is already in the entry; also called pep12
T12 peptide: Biotin-LEDMPVDPDNAAYEM
Description: as §1

asyn_113-127_124G [13] = molecular target: T13, asyn_113-127_124G (human); test: Ala-scan peptide ELISA, row C, run 1
T13 construct: substitution is already in the entry; also called pep13
T13 peptide: Biotin-LEDMPVDPDNEGYEM
Description: as §1

asyn_113-127_124P [14] = molecular target: T14, asyn_113-127_124P (human); test: Ala-scan peptide ELISA, row C, run 1
T14 construct: substitution is already in the entry; also called pep14
T14 peptide: Biotin-LEDMPVDPDNEPYEM
Description: as §1

asyn_113-127_125A [15] = molecular target: T15, asyn_113-127_125A (human); test: Ala-scan peptide ELISA, row C, run 1
T15 construct: substitution is already in the entry; also called pep15
T15 peptide: Biotin-LEDMPVDPDNEAAEM
Description: as §1

asyn_113-127_126A [16] = molecular target: T16, asyn_113-127_126A (human); test: Ala-scan peptide ELISA, row C, run 1
T16 construct: substitution is already in the entry; also called pep16
T16 peptide: Biotin-LEDMPVDPDNEAYAM
Description: as §1

asyn_113-127_127A [17] = molecular target: T17, asyn_113-127_127A (human); test: Ala-scan peptide ELISA, row C, run 1
T17 construct: substitution is already in the entry; also called pep17
T17 peptide: Biotin-LEDMPVDPDNEAYEA
Description: as §1

[18] = molecular target: T18, biotinylated human alpha-synuclein (human, UniProt P37840 1-140); test: Ala-scan peptide ELISA, row C, run 1
Description: as §1

asyn_113-127 [19] = molecular target: T1, asyn_113-127; test: Ala-scan peptide ELISA, row G, run 2
Description: as §1

asyn_113-127_113A [20] = molecular target: T2, asyn_113-127_113A; test: Ala-scan peptide ELISA, row G, run 2
Description: as §1

asyn_113-127_114A [21] = molecular target: T3, asyn_113-127_114A; test: Ala-scan peptide ELISA, row G, run 2
Description: as §1

asyn_113-127_115A [22] = molecular target: T4, asyn_113-127_115A; test: Ala-scan peptide ELISA, row G, run 2
Description: as §1

asyn_113-127_116A [23] = molecular target: T5, asyn_113-127_116A; test: Ala-scan peptide ELISA, row G, run 2
Description: as §1

asyn_113-127_117A [24] = molecular target: T6, asyn_113-127_117A; test: Ala-scan peptide ELISA, row G, run 2
Description: as §1

asyn_113-127_118A [25] = molecular target: T7, asyn_113-127_118A; test: Ala-scan peptide ELISA, row G, run 2
Description: as §1

asyn_113-127_119A [26] = molecular target: T8, asyn_113-127_119A; test: Ala-scan peptide ELISA, row G, run 2
Description: as §1

asyn_113-127_120A [27] = molecular target: T9, asyn_113-127_120A; test: Ala-scan peptide ELISA, row G, run 2
Description: as §1

asyn_113-127_121A [28] = molecular target: T10, asyn_113-127_121A; test: Ala-scan peptide ELISA, row G, run 2
Description: as §1

asyn_113-127_122A [29] = molecular target: T11, asyn_113-127_122A; test: Ala-scan peptide ELISA, row G, run 2
Description: as §1

asyn_113-127_123A [30] = molecular target: T12, asyn_113-127_123A; test: Ala-scan peptide ELISA, row G, run 2
Description: as §1

asyn_113-127_124G [31] = molecular target: T13, asyn_113-127_124G; test: Ala-scan peptide ELISA, row G, run 2
Description: as §1

asyn_113-127_124P [32] = molecular target: T14, asyn_113-127_124P; test: Ala-scan peptide ELISA, row G, run 2
Description: as §1

asyn_113-127_125A [33] = molecular target: T15, asyn_113-127_125A; test: Ala-scan peptide ELISA, row G, run 2
Description: as §1

asyn_113-127_126A [34] = molecular target: T16, asyn_113-127_126A; test: Ala-scan peptide ELISA, row G, run 2
Description: as §1

asyn_113-127_127A [35] = molecular target: T17, asyn_113-127_127A; test: Ala-scan peptide ELISA, row G, run 2
Description: as §1

[36] = molecular target: T18, biotinylated human alpha-synuclein; test: Ala-scan peptide ELISA, row G, run 2
Description: as §1

B1: 20H4 (antibody, rat IgG2b, V domains shown)
VH: AVQLVESGGGLVQPKESLKISCAASGFTFSNAAMYWVRQAPGKGLELLARIRTKPNNYATYHADSVKGRFTISRDDSQSMVYLHMGNLKTEDTAMYYCTADMATGDYWGPGVMVTVSS
VL: DIQMTQSPPVLSVSVGDRVTLSCKASQNINKNLDWYQQKHGEAPKPLIYSTNNLQTGVPSRFSGSGSGTDYTLTISSLQPEDVATYYCYQYKSAWTFGGGTKLELR
notes: also called clone 20H4; rat 20H4
With B1 the A450 (asyn_113-127 [1]) was 0.48 OD, the A450 (asyn_113-127_113A [2]) was 0.498 OD and the A450 (asyn_113-127_114A [3]) was 0.417 OD. The A450 (asyn_113-127_115A [4]) was 0.417 OD, the A450 (asyn_113-127_116A [5]) was 0.48 OD and the A450 (asyn_113-127_117A [6]) was 0.494 OD. The A450 (asyn_113-127_118A [7]) was 0.403 OD, the A450 (asyn_113-127_119A [8]) was 0.059 OD and the A450 (asyn_113-127_120A [9]) was 0.323 OD. It also gave an A450 (asyn_113-127_121A [10]) of 0.443 OD, an A450 (asyn_113-127_122A [11]) of 0.052 OD and an A450 (asyn_113-127_123A [12]) of 0.476 OD. The A450 (asyn_113-127_124G [13]) was 0.34 OD, the A450 (asyn_113-127_124P [14]) was 0.051 OD and the A450 (asyn_113-127_125A [15]) was 0.049 OD. The A450 (asyn_113-127_126A [16]) was 0.371 OD, the A450 (asyn_113-127_127A [17]) was 0.379 OD and the A450 [18] was 0.588 OD. For the same binder, the A450 (asyn_113-127 [19]) was 0.089 OD, the A450 (asyn_113-127_113A [20]) was 0.095 OD and the A450 (asyn_113-127_114A [21]) was 0.093 OD. For the same binder, the A450 (asyn_113-127_115A [22]) was 0.057 OD, the A450 (asyn_113-127_116A [23]) was 0.101 OD and the A450 (asyn_113-127_117A [24]) was 0.108 OD. It also gave an A450 (asyn_113-127_118A [25]) of 0.109 OD, an A450 (asyn_113-127_119A [26]) of 0.05 OD and an A450 (asyn_113-127_120A [27]) of 0.072 OD. For the same binder, the A450 (asyn_113-127_121A [28]) was 0.097 OD, the A450 (asyn_113-127_122A [29]) was 0.048 OD and the A450 (asyn_113-127_123A [30]) was 0.103 OD. The A450 (asyn_113-127_124G [31]) was 0.095 OD, the A450 (asyn_113-127_124P [32]) was 0.048 OD and the A450 (asyn_113-127_125A [33]) was 0.049 OD. For the same binder, the A450 (asyn_113-127_126A [34]) was 0.101 OD, the A450 (asyn_113-127_127A [35]) was 0.092 OD and the A450 [36] was 0.152 OD.
